{"source": "patent US20240002531A1", "about": "(ONO PHARMACEUTICAL, published 2024)", "binders": {"B1": {"name": "H2Mab-214 antibody (antibody, V domains shown)", "VH": "QVTLKESGPGILQPSQTLSLTCSFSGFSLSTSGMGVSWIRQPSGKGLEWLAHIFWDDDKRYNPSLKSRLTISKDTSRNKVFLKITSVDTADTATYYCARRVVATDWYFDVWGAGTTVTVSS", "VL": "DIVLTQSPASLAVSLGQRATISCRASESVEYYGTTLMQWYQQKPGQPPKLLIYAASKVESGVPARFSGSGSGTDFSLNIHPVEEDDVAMYFCQQSRKVPLTFGAGTKLELKR", "notes": "Mouse monoclonal from a hybridoma (immunogen HER2ec made in LN229 cells); also called antibody of the present invention"}, "B2": {"name": "H2Mab-250 antibody (antibody, V domains shown)", "VH": "EVQLVESGGGLVQPGGSLKLSCAASGFTFSNYGMSWVRQTPDRRLELVATINNNGGGTYYPDSVKGRFTISRDNAKNTLYLQMSSLKSEDTAMYYCTSPGLLWDAWGAGTTVTVSS", "VL": "not shown", "notes": "as for B1"}}, "experiment_in_all_cases": "SPR Biacore, mAb on chip, peptide analyte, 1:1 fit", "key": {"[1]": {"target": "T1, HER2 peptide p614-619 (human)", "T1 peptide": "WKFPDE"}, "[2]": {"target": "T2, HER2 peptide p614-620 (human)", "T2 peptide": "WKFPDEE"}, "[3]": {"target": "T3, HER2 peptide p614-622 (human)", "T3 peptide": "WKFPDEEGA"}, "[4]": {"target": "T4, HER2 peptide p612-618 (human)", "T4 construct": "also called PIWKFPD", "T4 peptide": "PIWKFPD"}, "[5]": {"target": "T5, HER2 peptide p612-621 (human)", "T5 peptide": "PIWKFPDEEG"}, "[6]": {"target": "T6, HER2 peptide p611-622 (human)", "T6 peptide": "MPIWKFPDEEGA"}, "[7]": {"target": "T7, HER2 peptide p610-620 (human)", "T7 peptide": "YMPIWKFPDEE"}, "[8]": {"target": "T8, HER2 peptide p610-622 (human)", "T8 peptide": "YMPIWKFPDEEGA"}, "[9]": {"target": "T9, HER2 peptide p609-618 (human)", "T9 peptide": "SYMPIWKFPD"}, "[10]": {"target": "T10, HER2 peptide p609-621 (human)", "T10 peptide": "SYMPIWKFPDEEG"}, "[11]": {"target": "T11, HER2 peptide p609-622 (human)", "T11 peptide": "SYMPIWKFPDEEGA"}, "[12]": {"target": "T12, HER2 peptide p603-622 (amino acids 603 to 622 of human HER2) (human)", "T12 construct": "Synthetic peptide; also called wild-type HER2 peptide", "T12 peptide": "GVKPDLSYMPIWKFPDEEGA"}, "[13]": {"target": "T13, HER2 peptide p613-618 (human)", "T13 peptide": "IWKFPD"}, "[14]": {"target": "T14, HER2 peptide p613-621 (human)", "T14 peptide": "IWKFPDEEG"}, "[15]": {"target": "T15, HER2 peptide p613-622 (human)", "T15 peptide": "IWKFPDEEGA"}, "[16]": {"target": "T16, HER2 peptide p612-619 (human)", "T16 peptide": "PIWKFPDE"}, "[17]": {"target": "T17, HER2 peptide p612-620 (human)", "T17 peptide": "PIWKFPDEE"}, "[18]": {"target": "T5, HER2 peptide p612-621"}, "[19]": {"target": "T18, HER2 peptide p611-620 (human)", "T18 peptide": "MPIWKFPDEE"}, "[20]": {"target": "T19, HER2 peptide p610-619 (human)", "T19 peptide": "YMPIWKFPDE"}, "[21]": {"target": "T20, HER2 peptide p610-621 (human)", "T20 peptide": "YMPIWKFPDEEG"}, "[22]": {"target": "T8, HER2 peptide p610-622"}, "[23]": {"target": "T9, HER2 peptide p609-618"}, "[24]": {"target": "T21, HER2 peptide p609-619 (human)", "T21 peptide": "SYMPIWKFPDE"}, "[25]": {"target": "T22, HER2 peptide p609-620 (human)", "T22 peptide": "SYMPIWKFPDEE"}}, "note": "Read-outs that look alike come from different tables or passages of the source.", "data": [{"binder": "B1", "values": [{"measurement": "Kd", "setting": "[1]", "value": 8540, "unit": "nM"}, {"measurement": "koff", "setting": "[1]", "value": 0.0119, "unit": "s⁻¹"}, {"measurement": "kon", "setting": "[1]", "value": 1400, "unit": "M⁻¹ s⁻¹"}, {"measurement": "Kd", "setting": "[2]", "value": 41200, "unit": "nM"}, {"measurement": "koff", "setting": "[2]", "value": 0.0152, "unit": "s⁻¹"}, {"measurement": "kon", "setting": "[2]", "value": 370, "unit": "M⁻¹ s⁻¹"}, {"measurement": "Kd", "setting": "[3]", "value": 26400, "unit": "nM"}, {"measurement": "koff", "setting": "[3]", "value": 0.0115, "unit": "s⁻¹"}, {"measurement": "kon", "setting": "[3]", "value": 435, "unit": "M⁻¹ s⁻¹"}, {"measurement": "Kd", "setting": "[4]", "value": 27.7, "unit": "nM"}, {"measurement": "koff", "setting": "[4]", "value": 0.013, "unit": "s⁻¹"}, {"measurement": "kon", "setting": "[4]", "value": 467000, "unit": "M⁻¹ s⁻¹"}, {"measurement": "Kd", "setting": "[5]", "value": 27.9, "unit": "nM"}, {"measurement": "koff", "setting": "[5]", "value": 0.024, "unit": "s⁻¹"}, {"measurement": "kon", "setting": "[5]", "value": 859000, "unit": "M⁻¹ s⁻¹"}, {"measurement": "Kd", "setting": "[6]", "value": 23.9, "unit": "nM"}, {"measurement": "koff", "setting": "[6]", "value": 0.0108, "unit": "s⁻¹"}, {"measurement": "kon", "setting": "[6]", "value": 451000, "unit": "M⁻¹ s⁻¹"}, {"measurement": "Kd", "setting": "[7]", "value": 8.68, "unit": "nM"}, {"measurement": "koff", "setting": "[7]", "value": 0.00502, "unit": "s⁻¹"}, {"measurement": "kon", "setting": "[7]", "value": 579000, "unit": "M⁻¹ s⁻¹"}, {"measurement": "Kd", "setting": "[8]", "value": 38.8, "unit": "nM"}, {"measurement": "koff", "setting": "[8]", "value": 0.00598, "unit": "s⁻¹"}, {"measurement": "kon", "setting": "[8]", "value": 154000, "unit": "M⁻¹ s⁻¹"}, {"measurement": "Kd", "setting": "[9]", "value": 14.3, "unit": "nM"}, {"measurement": "koff", "setting": "[9]", "value": 0.0107, "unit": "s⁻¹"}, {"measurement": "kon", "setting": "[9]", "value": 747000, "unit": "M⁻¹ s⁻¹"}, {"measurement": "Kd", "setting": "[10]", "value": 8.06, "unit": "nM"}, {"measurement": "koff", "setting": "[10]", "value": 0.00465, "unit": "s⁻¹"}, {"measurement": "kon", "setting": "[10]", "value": 577000, "unit": "M⁻¹ s⁻¹"}, {"measurement": "Kd", "setting": "[11]", "value": 9.37, "unit": "nM"}, {"measurement": "koff", "setting": "[11]", "value": 0.00526, "unit": "s⁻¹"}, {"measurement": "kon", "setting": "[11]", "value": 561000, "unit": "M⁻¹ s⁻¹"}]}, {"binder": "B2", "values": [{"measurement": "Kd", "setting": "[12]", "value": 3.67, "unit": "nM"}, {"measurement": "koff", "setting": "[12]", "value": 0.00033, "unit": "s⁻¹"}, {"measurement": "kon", "setting": "[12]", "value": 90100, "unit": "M⁻¹ s⁻¹"}, {"measurement": "Kd", "setting": "[13]", "value": 4.45, "unit": "nM"}, {"measurement": "koff", "setting": "[13]", "value": 0.00289, "unit": "s⁻¹"}, {"measurement": "kon", "setting": "[13]", "value": 649000, "unit": "M⁻¹ s⁻¹"}, {"measurement": "Kd", "setting": "[14]", "value": 10.5, "unit": "nM"}, {"measurement": "koff", "setting": "[14]", "value": 0.00343, "unit": "s⁻¹"}, {"measurement": "kon", "setting": "[14]", "value": 325000, "unit": "M⁻¹ s⁻¹"}, {"measurement": "Kd", "setting": "[15]", "value": 14, "unit": "nM"}, {"measurement": "koff", "setting": "[15]", "value": 0.00346, "unit": "s⁻¹"}, {"measurement": "kon", "setting": "[15]", "value": 247000, "unit": "M⁻¹ s⁻¹"}, {"measurement": "Kd", "setting": "[16]", "value": 3.36, "unit": "nM"}, {"measurement": "koff", "setting": "[16]", "value": 0.000841, "unit": "s⁻¹"}, {"measurement": "kon", "setting": "[16]", "value": 250000, "unit": "M⁻¹ s⁻¹"}, {"measurement": "Kd", "setting": "[17]", "value": 4.39, "unit": "nM"}, {"measurement": "koff", "setting": "[17]", "value": 0.000756, "unit": "s⁻¹"}, {"measurement": "kon", "setting": "[17]", "value": 172000, "unit": "M⁻¹ s⁻¹"}, {"measurement": "Kd", "setting": "[18]", "value": 3.49, "unit": "nM"}, {"measurement": "koff", "setting": "[18]", "value": 0.000683, "unit": "s⁻¹"}, {"measurement": "kon", "setting": "[18]", "value": 196000, "unit": "M⁻¹ s⁻¹"}, {"measurement": "Kd", "setting": "[19]", "value": 2.65, "unit": "nM"}, {"measurement": "koff", "setting": "[19]", "value": 0.000387, "unit": "s⁻¹"}, {"measurement": "kon", "setting": "[19]", "value": 146000, "unit": "M⁻¹ s⁻¹"}, {"measurement": "Kd", "setting": "[20]", "value": 1.19, "unit": "nM"}, {"measurement": "koff", "setting": "[20]", "value": 0.00038, "unit": "s⁻¹"}, {"measurement": "kon", "setting": "[20]", "value": 319000, "unit": "M⁻¹ s⁻¹"}, {"measurement": "Kd", "setting": "[21]", "value": 1.36, "unit": "nM"}, {"measurement": "koff", "setting": "[21]", "value": 0.000347, "unit": "s⁻¹"}, {"measurement": "kon", "setting": "[21]", "value": 256000, "unit": "M⁻¹ s⁻¹"}, {"measurement": "Kd", "setting": "[22]", "value": 1.81, "unit": "nM"}, {"measurement": "koff", "setting": "[22]", "value": 0.00033, "unit": "s⁻¹"}, {"measurement": "kon", "setting": "[22]", "value": 183000, "unit": "M⁻¹ s⁻¹"}, {"measurement": "Kd", "setting": "[23]", "value": 0.803, "unit": "nM"}, {"measurement": "koff", "setting": "[23]", "value": 0.00021, "unit": "s⁻¹"}, {"measurement": "kon", "setting": "[23]", "value": 262000, "unit": "M⁻¹ s⁻¹"}, {"measurement": "Kd", "setting": "[24]", "value": 1.2, "unit": "nM"}, {"measurement": "koff", "setting": "[24]", "value": 0.000293, "unit": "s⁻¹"}, {"measurement": "kon", "setting": "[24]", "value": 244000, "unit": "M⁻¹ s⁻¹"}, {"measurement": "Kd", "setting": "[25]", "value": 1.24, "unit": "nM"}, {"measurement": "koff", "setting": "[25]", "value": 0.000291, "unit": "s⁻¹"}, {"measurement": "kon", "setting": "[25]", "value": 234000, "unit": "M⁻¹ s⁻¹"}]}]}
